T1: human APRIL/TNFSF13 (human), O75888
T1 chain: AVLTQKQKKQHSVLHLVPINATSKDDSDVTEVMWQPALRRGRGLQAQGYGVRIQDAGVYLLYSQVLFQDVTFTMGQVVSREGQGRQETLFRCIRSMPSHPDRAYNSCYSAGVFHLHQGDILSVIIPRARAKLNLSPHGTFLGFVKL

B1: 01-024 (scFv) (scFv, part only; not given: linker, domain order, Myc-His tags, V domains shown, not shown: another chain or arm of the molecule; small tags and cut ends)
VH: EVQLVQSGGGLVQSGGSLRVSCAASGFTFSSGLMSWVRQAPGKGFEWVSCYNGGSDRAGYTDSVKGRFTISRDNAKNTLYLQMNSLKPEDTAVYYCARYIANSGTYYWDYWGQGTTVTVSS
VL: QAVLTQPPSASGTPGQRVSISCSGGISNIGSNIVNWYQHLPGTAPKLLIYSGNQRPSGVPDRFSGSKSGTSASLAISGLQSEDEADYYCSSWDSDLRNWVFGGGTKLTVL
B2: 01-027 (scFv) (scFv, part only; not given: linker, domain order, Myc-His tags, V domains shown, not shown: another chain or arm of the molecule; small tags and cut ends)
VH: B1 VH with C50G
VL: B1 VL
B3: 01-025 (scFv) (scFv, part only; not given: linker, domain order, Myc-His tags, V domains shown, not shown: another chain or arm of the molecule; small tags and cut ends)
VH: B1 VH with C50G
VL: QPVLTQPPSVSEAPRQRVTISCSGSSSNIGNNAVNWYQQLPGKAPKLLIYSTNQRPSGVPDRFSGSKSGTSASLAISGLQSEDEADYYCAAWDDRVSAWLFGGGTKLTVL
B4: 01-026 (scFv) (scFv, part only; not given: linker, domain order, Myc-His tags, V domains shown, not shown: another chain or arm of the molecule; small tags and cut ends)
VH: B1 VH with C50G
VL: QSVLTQPPSVSGAPGQRVTISCTGSSSNIGAGYDVHWYQQLPGTAPKLVIYGNTNRPSGVPDRFSGSKSGTSASLAISGLQSEDEADYYCAAWDDSLNGWVFGGGTKLTVL
B5: 01-030 (scFv) (scFv, part only; not given: linker, domain order, Myc-His tags, V domains shown, not shown: another chain or arm of the molecule; small tags and cut ends)
VH: B1 VH with S14P, T28S, C50G, Y60F, T61A, K65E, T116L
VL: QSALTQPPSASGTPGQRVTISCSGSISNIGSNTVNWYQHLPGTAPKLLIYNHNQRPSGVPDRFSGSTSGTSASLAISGLQSEDEADYFCATWDDSLSAWLFGGGTKLTVL
B6: human BCMA (soluble analyte of Examples 8 and 14), Q02223 1-54 (receptor, UniProt Q02223 1-54, looked up)
chain: MLQMAGQCSQNEYFDSLLHACIPCQLRCSSNTPPLTCQRYCNASVTNSVKGTNA

Residue numbers refer to the chain shown, from its start.

The first assay concerns the target biotinylated human BCMA (human) (UniProt Q02223). The experiment in a line: BLI (Octet RED384), biotinylated human BCMA on SAX sensors, scFv 1200 nM analyte, 1:1 model.
Settings: not given
On the technique in general: BLI is a label-free optical method that tracks binding on a fibre tip over time.
Consider B1, for which the Kd was found to be 1.5 nM, the Response turned out to be 0.174 nm, the koff was found to be 0.00057 s⁻¹ and the kon is 380000 M⁻¹ s⁻¹.

B2: the Kd turned out to be 3.38 nM, the Response was found to be 0.171 nm, the koff was 0.00096 s⁻¹ and the kon was found to be 284000 M⁻¹ s⁻¹.

In turn, B3 had an equilibrium dissociation constant (Kd) of 15.5 nM, a Response of 0.183 nm, a koff of 0.00128 s⁻¹ and a kon of 82600 M⁻¹ s⁻¹.

B4 displayed a Kd of 59.6 nM, a Response of 0.115 nm, a koff of 0.00248 s⁻¹ and a kon of 41700 M⁻¹ s⁻¹.

In turn, B5 registered a Kd of 8.42 nM, a Response of 0.172 nm, a koff of 0.000939 s⁻¹ and a kon of 112000 M⁻¹ s⁻¹.

A further assay deals with T1, human APRIL/TNFSF13 (human), O75888. The assay can be described thus: BLI (Octet RED384), APRIL/TNFSF13 on AR2G sensors, 71 nM human BCMA analyte, no antibody. Particulars: remark: other sources report otherwise.
B6 showed a Response of 0.659 nm.

The term Kd denotes the constant that tells how readily two partners part at equilibrium. A higher Kd goes with lower affinity. In general, koff refers to the first-order rate constant of dissociation. Read a low koff as a long-lived complex. Broadly, the kon is the rate constant with which the complex forms. A low value points to slow association.

(Values after US20250304707A1.)
